Test: label from the status in PepcDB records

| Sequence | protein production |
| --- | --- |
| MAWRVGIAPLMTPSTPLWPGREPVYRSAALSSMEPGRPRGQQGTELGMPAGAPLRRGIGGGPGLDVRRRDLGAVAAAHQHAILGPAQVGDAHGEPDPDRGQRDGEGERGDVGEHAVAEIVRLGARLLVARQVERLGRAAHRLHGAVAPVDRRGGGGARPELEHPVLLIRAYGPLGFHGARITPKQRFLIAYVVNALQKIFSTRTCIALLHDLFAKARDSGRHAGVRMRGVALQNSHGTCRARSREHRLVISLCAPNAFCRRKAHGIIMEPGPPVATNNVRGSSTMTTNAREPRVHPVPILSLRPTQMTVGMREVKEKRKRWREHDSKKQADLLGKHMIPVVYGPDKRYYVIDHHHLGRALHDEGVKEVLVTVVGDLRMVEREAFWGVMDNKRWVYPYDSKGERRPFRDLPKSVADLRDDPFRSLAGELRRLGGFAKDTTPFSEFLWADYLRRKLSRKAVDANFDKALEKALSAAKSKDAIYLPGWCGPADDD | failed |
| MSLNIEEWEEYRYVEAGIKESITLIEDPGLKKMVEHVCHSGGKRIRPIILLLVSEICSGSYSRSLNAALAVEMMHSASLIHDDLLDQGLVRRNLPSAPEKFGPSGALLCGDYLIAKSIAFISPYGEKVIQDFGKAGMDMAEGEVLDLKLEDESFGENDYFKCIYKKTASLFAISASIGAYTGGAEEELAERFSHFGNALGTAYQIVDDILEFLEVVEGKESKFTSETLPHIYMKSTSKEEALKKSIDCVKLHVAAAKETLETFRECPARDKLFQITDYITVDMLENLEGHHHHHH | not failed |
| MQVRIERAERIESELEEHVGDQTFVEESRFLEEDEQREGEILDQIIFVDGKRRSFVRITTDEGITGIFAELCVGAVIWDREGGTKTLFSPDKPPVKERVLGFSQSFQEEGYEEVGGILFKVVKEGKDAMQSIDLYMRSLEIEEVRKHMDKNILIVKDGPAARELPFEENVGPIGLVKNIGVTELSKEDFKKLRFLKKGKRSKMFVSSRETPLKKVGAYVKLIDGEGIRGLVRLETYVKDDNQIPYIRKVFDDLAKTLPHLTADLPIPRLPENILPIQFLEENLSYYLTDKNYMNTRLFAYIGR | not failed |
| MQYIKQIMLLVILTISWKCQAEEVKEIWLDELGESSYYIQDWGLPRINKAVTMTPLTVKGIVYERGIGTHAISRMLFDIGKKAKTLSGLAGADDNTPFACNLQFKILGDRKELWRSGIMRKGDPAKPFNIDLSGIDKVLLLVEECGDGMMYDRADWLNVKFTTLGDVQPIPVWPKPIAKEKYILTPQSPDAPQINNPLTYGARPGNPFLMPIMVSGKRPMTYKAKGLPKGLKLNRKTGLITGSTNTNGNFKVRLQATNEKGTDEKEITLKIGSEIMLTPPMGWNSWNCWRFAADDQKVRDAARIMHEKLQAYGWTYVNIDDGWEADERTPEGELPANEKFPDFKTLTDYIHSLGLKFGIYSSPGWTTCGRHIGSCQHELTDAKTWEKWGVDYLKYDYCGYAAIEKNSEEKTIQEPFIVMRNALDQIKRDIVYCVGYGAPNVWNWGAEAGGNLWRTTRDINDQWNIVMAIGCFQDVCAYVSAPGKYNDPDMLVVGKLGPGWGAKSHDSDLTADEQYAHISLWSILSAPLLLGCDMTAIDDFTLGLLTNPEVIAVNQDPLVAPATKLTVPNGQIWYKKLYDGSYALGFFQMDPYFILWDQDKAVNIQQQKYNFNFALNQLGIQGKVKIRDLWRQKNLGIFSGSYETSIPYHGVSLIKITPIK | failed |
| MSRYRLREHAWCLRQLNVSNKSFLKRSFLVGLGYTPPIRYFIDIGPLPNWTRKEVNELILGRTRVRSPILKLLIELFVHRICSDPRFQVKSSSVNA | failed |
| MYTPVSKSTKSNKNRSSLDKILDAKKPVNLLILGTDTGAEGRSVKNYHGLTDLMMFVTVNPSKKQTRVTTIARDSKVNLPDYPEVSPIKLNSAYSLGGVSETIKTLDKYYSVPIDGYVLVNWASTMKIITKMGGVDVISPLTFDNMGYSFKKGQMYHISGKKALAFVQLRHGDPRQDYGRQERERLVMMAAIKKSVSYKTILNSSFMQSLGDSMQTDLSLNDMIKLAMNYQGVTDNVKSDYAQGKSSSVNNQRFGNMEVEIMSTKERQRISNNIRQTLGIKNVDVYKEDNLEHHHHHH | not failed |
